Test results from patent publication US20180044434A1.

How the values were obtained:
[1] = target: T1, Ala mutant having 3-amino acid substitution, SEQ ID NO: 46; assay: ELISA, coated peptide
T1 sequence (peptide): EENMDDAAAQDEMEIGY

[2] = target: T2, Ala mutant of TA0096, SEQ ID NO: 32; assay: ELISA, coated peptide
T2 sequence (peptide): EENMDAQWMQDEMEIGY

OD 490/630 nm [1]: 0.052
OD 490/630 nm [2]: 0.012
Substance: anti-dinitrophenyl (DNP) antibody (negative control)
